Test results published in paper PMC12326988, “Synthetic host defense peptide inhibits SARS-CoV-2 replication in vitro” (Antimicrobial Agents and Chemotherapy, 2025).

Target: binding between SARS-CoV-2 Wuhan RBD-Fc and hACE2-AP (UniProt P0DTC2+Q9BYF1)
Design: species or system SARS-CoV-2; human

binding between SARS-CoV-2 Wuhan RBD-Fc and hACE2-AP, sequence (Q9BYF1 18-740, one chain of several): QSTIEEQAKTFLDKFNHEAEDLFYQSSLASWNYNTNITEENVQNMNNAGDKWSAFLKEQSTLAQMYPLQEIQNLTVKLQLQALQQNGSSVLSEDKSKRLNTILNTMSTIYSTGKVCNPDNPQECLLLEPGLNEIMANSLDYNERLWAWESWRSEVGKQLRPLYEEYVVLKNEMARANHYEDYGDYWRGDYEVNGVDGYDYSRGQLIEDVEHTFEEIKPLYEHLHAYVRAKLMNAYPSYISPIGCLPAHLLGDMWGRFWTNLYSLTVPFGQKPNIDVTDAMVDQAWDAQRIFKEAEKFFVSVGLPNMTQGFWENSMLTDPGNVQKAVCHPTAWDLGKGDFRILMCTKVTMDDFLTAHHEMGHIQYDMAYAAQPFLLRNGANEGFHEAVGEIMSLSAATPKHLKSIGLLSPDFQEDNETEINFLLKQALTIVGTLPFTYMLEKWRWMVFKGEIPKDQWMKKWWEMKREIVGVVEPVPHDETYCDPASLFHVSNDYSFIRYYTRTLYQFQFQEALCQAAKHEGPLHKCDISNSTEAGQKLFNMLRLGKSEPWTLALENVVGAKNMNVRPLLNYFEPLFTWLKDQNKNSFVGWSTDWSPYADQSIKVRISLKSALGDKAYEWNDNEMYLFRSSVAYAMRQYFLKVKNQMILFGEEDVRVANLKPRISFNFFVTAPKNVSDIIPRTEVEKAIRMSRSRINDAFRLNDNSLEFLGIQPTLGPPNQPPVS

shACE2
IC50, inhibition of hACE2-AP to RBD-Fc interaction: 1.42 µg/mL
